From article PMC12724345

Experiments:
[1] = target: Arabidopsis SCE1 fused to CLuc (split-luciferase assay) (UniProt Q42551); assay: split-luciferase complementation assay in planta; conditions: Rep^sim NLuc + CLuc SCE1; n = 12; parent: est. 0.36; read off a plot
[2] = target: Arabidopsis SUMO1^ΔGG fused to CLuc (split-luciferase assay) (UniProt P55852); assay: split-luciferase complementation assay in planta; conditions: Rep^sim NLuc + CLuc SUMO1^ΔGG; n = 12; parent: est. 0.29; read off a plot
UniProt P55852, sequence (P55852 1-91, stated change not applied): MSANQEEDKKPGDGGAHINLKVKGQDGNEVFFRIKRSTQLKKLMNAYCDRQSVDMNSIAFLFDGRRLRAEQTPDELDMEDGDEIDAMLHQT

UniProt Q42551, sequence (Q42551 whole entry, the tested form may be a part): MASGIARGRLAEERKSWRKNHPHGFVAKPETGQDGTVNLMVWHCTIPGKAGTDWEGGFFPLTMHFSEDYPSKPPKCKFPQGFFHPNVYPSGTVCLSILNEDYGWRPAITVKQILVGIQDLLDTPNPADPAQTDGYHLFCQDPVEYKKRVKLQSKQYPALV

## Rep of TYLCV fused to NLuc (split-luciferase assay) I215A; V216A; I217A
[1]
  response (fraction of total signal): 0.075
[2]
  response (fraction of total signal): 0.08
